The supplement of paper PMC10567573

B1: MYL5 (parent)
chain: FQFASIDVAGNLDYKALSYVITHG
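Note: lentivirally expressed fusions sorted by FACS into six bins by GFP to DsRed ratio, PSI derived from sequencing read proportions per bin multiplied by bin number.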

Variants of: B1
Experiment: protein stability index of a GFP-peptide fusion (GPS, HEK-293T) (PSI 1-6); higher = more stable
Conditions: c terminus: a fixed tail appended
Variant FQFASIDWAGNLDYKALSYVITHG [V8W] has a protein stability index of 2.9.
FQFASIDGAGNLDYKALSYVITHG [V8G] gave a protein stability index of 3.17.
For FQFASIDSAGNLDYKALSYVITHG [V8S], the protein stability index was 2.09.
FQFASIDMAGNLDYKALSYVITHG [V8M] showed a protein stability index of 2.67.
Variant FQFASIDKAGNLDYKALSYVITHG [V8K] has a protein stability index of 2.17.
Work on FQFASIDHAGNLDYKALSYVITHG [V8H] yielded a protein stability index of 3.1.
FQFASIDPAGNLDYKALSYVITHG [V8P] showed a protein stability index of 2.55.
In the case of FQFASIDNAGNLDYKALSYVITHG [V8N], the protein stability index is reported as 2.44.
Variant FQFASIDRAGNLDYKALSYVITHG [V8R] has a protein stability index of 2.8.
For FQFASIDVAGDLDYKALSYVITHG [N11D], the protein stability index was 1.17.
In the case of FQFASIDVAGCLDYKALSYVITHG [N11C], the protein stability index is reported as 3.05.
Work on FQFASIDVAGKLDYKALSYVITHG [N11K] yielded a protein stability index of 2.17.
For FQFASIDVAGALDYKALSYVITHG [N11A], the protein stability index was 2.52.
FQFASIDVAGPLDYKALSYVITHG [N11P] gave a protein stability index of 3.96.
Work on FQFASIDVAGWLDYKALSYVITHG [N11W] yielded a protein stability index of 2.82.
In the case of FQFASIDVAGSLDYKALSYVITHG [N11S], the protein stability index is reported as 3.23.
Work on FQFASIDVAGQLDYKALSYVITHG [N11Q] yielded a protein stability index of 5.1.
For FQFASIDVAGTLDYKALSYVITHG [N11T], the protein stability index was 2.92.
For FQFASIDVAGELDYKALSYVITHG [N11E], the protein stability index was 2.83.
For FQFASIDVAGNLDYKALSYVITHA [G24A], the protein stability index was 3.
For FQFASIDVAGNLDYKALSYVITHF [G24F], the protein stability index was 2.42.
FQFASIDVAGNLDYKACSYVITHG [L17C] showed a protein stability index of 3.94.
FQFASIDVAGNLDYKASSYVITHG [L17S] showed a protein stability index of 3.25.
For FQFASIDVAGNLDYKAGSYVITHG [L17G], the protein stability index was 2.72.
With FQFASIDVAGNLDYKAYSYVITHG [L17Y] the protein stability index was 2.8.
Variant FQFASIDVAGNLDYKAQSYVITHG [L17Q] has a protein stability index of 2.03.
Work on FQFASIDVAGNLDYKAASYVITHG [L17A] yielded a protein stability index of 2.49.
Variant FQFASIDVAGNLDYKATSYVITHG [L17T] has a protein stability index of 2.2.
With FQFASIDVAGNLDYKAFSYVITHG [L17F] the protein stability index was 2.71.
For FQFASIDVAGNLDYKAPSYVITHG [L17P], the protein stability index was 2.35.
With FQFASIDVAGNLDYKAWSYVITHG [L17W] the protein stability index was 2.39.
Variant FQFASIDVAGNLDYKAHSYVITHG [L17H] has a protein stability index of 2.06.
Work on FQFASIDVAGNLDYKAMSYVITHG [L17M] yielded a protein stability index of 3.7.
Work on FQFASIDVAGNLDYKANSYVITHG [L17N] yielded a protein stability index of 1.39.
Variant FQFASIDVAGNLDYKAESYVITHG [L17E] has a protein stability index of 1.44.
In the case of FQFASIDVAGNLDYKAKSYVITHG [L17K], the protein stability index is reported as 2.71.
Variant FQFASIDVAGNLDYKADSYVITHG [L17D] has a protein stability index of 1.94.
For FQFASIDVAGNLDYKALQYVITHG [S18Q], the protein stability index was 1.49.
FQFASIDVAGNLDYKALIYVITHG [S18I] showed a protein stability index of 2.66.
Work on FQFASIDVAGNLDYKALMYVITHG [S18M] yielded a protein stability index of 3.46.
FQFASIDVAGNLDYKALEYVITHG [S18E] showed a protein stability index of 1.56.
FQFASIDVAGNLDYKALLYVITHG [S18L] showed a protein stability index of 1.83.
In the case of FQFASIDVAGNLDYKALDYVITHG [S18D], the protein stability index is reported as 1.75.
In the case of FQFASIDVAGNLDYKALKYVITHG [S18K], the protein stability index is reported as 1.62.
In the case of FQFASIDVLGNLDYKALSYVITHG [A9L], the protein stability index is reported as 2.77.
With FQFASIDVTGNLDYKALSYVITHG [A9T] the protein stability index was 3.01.
Work on FQFASIDVHGNLDYKALSYVITHG [A9H] yielded a protein stability index of 2.26.
For FQFASIDVFGNLDYKALSYVITHG [A9F], the protein stability index was 2.33.
With FQFASIDVKGNLDYKALSYVITHG [A9K] the protein stability index was 2.71.
FQFASIDVQGNLDYKALSYVITHG [A9Q] showed a protein stability index of 1.91.
In the case of FQFASIDVPGNLDYKALSYVITHG [A9P], the protein stability index is reported as 1.7.
With FQFASIDVMGNLDYKALSYVITHG [A9M] the protein stability index was 3.38.
FQFASIDVNGNLDYKALSYVITHG [A9N] showed a protein stability index of 3.37.
In the case of FQFASIDVYGNLDYKALSYVITHG [A9Y], the protein stability index is reported as 4.67.
FQFASIDVAGNLDSKALSYVITHG [Y14S] gave a protein stability index of 2.15.
Work on FQFASIDVAGNLDKKALSYVITHG [Y14K] yielded a protein stability index of 2.48.
Work on FQFASIDVAGNLDHKALSYVITHG [Y14H] yielded a protein stability index of 2.1.
In the case of FQFASIDVAGNLDNKALSYVITHG [Y14N], the protein stability index is reported as 2.27.
In the case of FQFASIDVAGNLDEKALSYVITHG [Y14E], the protein stability index is reported as 1.25.
For FQFASIDVAGNLDRKALSYVITHG [Y14R], the protein stability index was 3.3.
FQFASIDVAGNLDPKALSYVITHG [Y14P] gave a protein stability index of 2.28.
Work on FQFASIDVAGNLDTKALSYVITHG [Y14T] yielded a protein stability index of 3.5.
For FQFASIDVAGNLDQKALSYVITHG [Y14Q], the protein stability index was 2.03.
Work on FQFASIDVAGNLDWKALSYVITHG [Y14W] yielded a protein stability index of 3.44.
FQFASIDVAGNLDMKALSYVITHG [Y14M] gave a protein stability index of 2.4.
With FQFASIDVAGNLDAKALSYVITHG [Y14A] the protein stability index was 1.82.
For FQFASIDVAGNLDDKALSYVITHG [Y14D], the protein stability index was 2.21.
FQFASIDVAGNLDYDALSYVITHG [K15D] showed a protein stability index of 2.81.
Variant FQFASIDVAGNLDYFALSYVITHG [K15F] has a protein stability index of 2.81.
With FQFASIDVAGNLDYTALSYVITHG [K15T] the protein stability index was 3.79.
For FQFASIDVAGNLDYNALSYVITHG [K15N], the protein stability index was 2.34.
Work on FQFASIDVAGNLDYIALSYVITHG [K15I] yielded a protein stability index of 2.98.
FQFASIDVAGNLDYGALSYVITHG [K15G] showed a protein stability index of 1.5.
In the case of FQFASIDVAGNLDYRALSYVITHG [K15R], the protein stability index is reported as 2.16.
Variant FQFASIDVAGNLDYYALSYVITHG [K15Y] has a protein stability index of 3.8.
In the case of FQFASIDVAGNLDYSALSYVITHG [K15S], the protein stability index is reported as 2.31.
In the case of FQFASIDVAGNLDYHALSYVITHG [K15H], the protein stability index is reported as 2.12.
FQFASIDVAGNLDYEALSYVITHG [K15E] showed a protein stability index of 1.14.
FQFASIDVAGNLDYAALSYVITHG [K15A] gave a protein stability index of 3.38.
Variant FQFASIDVAGNLDYVALSYVITHG [K15V] has a protein stability index of 2.4.
With FQFASIDVAGNLDYQALSYVITHG [K15Q] the protein stability index was 3.65.
For FQFASIDVAGNLDYKALSYRITHG [V20R], the protein stability index was 2.46.
With FQFASIDVAGNLDYKALSYMITHG [V20M] the protein stability index was 1.49.
FQFASIDVAGNLDYKALSYDITHG [V20D] showed a protein stability index of 1.34.
Variant FQFASIDVAGNLDYKALSYCITHG [V20C] has a protein stability index of 3.44.
For FQFASIDVAGNLDYKALSYTITHG [V20T], the protein stability index was 2.29.
FQFASIDVAGNLDYKALSYAITHG [V20A] showed a protein stability index of 3.37.
In the case of FQFASIDVAGNLDYKALSYKITHG [V20K], the protein stability index is reported as 2.23.
Variant FQFASIDVAGNLDYKALSYPITHG [V20P] has a protein stability index of 1.32.
FQFASIDVAGNLDYKALSYSITHG [V20S] gave a protein stability index of 3.47.
Variant FQFASIDVAGNLDYKALSYGITHG [V20G] has a protein stability index of 2.81.
In the case of FQFASIDVAGNLDYKALSYQITHG [V20Q], the protein stability index is reported as 2.96.
In the case of FQFASIDVAGNLDYKALSYFITHG [V20F], the protein stability index is reported as 3.64.
FQFASIDVAGNLDYKALSYNITHG [V20N] showed a protein stability index of 1.7.
